Test results reported in the Human Domainome abundance scans (Beltran et al. 2025).
± gives the uncertainty stated by the source.

Assay: abundance fitness (aPCA) (normalised: wild type 0, dead -1); higher = more abundant; growth selection in yeast, the domain comes from the species named
Details: Homo sapiens
“Scaffold attachment factor B2 L60Q, Q14151” showed an abundance fitness of -0.271 ± 0.15. Substance “Scaffold attachment factor B2 D48F, Q14151” has an abundance fitness of -0.338 ± 0.36. For “Scaffold attachment factor B2 R28D, Q14151”, the abundance fitness was 0.131 ± 0.081. For “Scaffold attachment factor B2 N52P, Q14151”, the abundance fitness was -0.074 ± 0.088. Work on “Scaffold attachment factor B2 R45V, Q14151” yielded an abundance fitness of -0.565 ± 0.095. “Scaffold attachment factor B2 R34F, Q14151” gave an abundance fitness of -0.673 ± 0.23. “Tyrosine-protein kinase Lck I67E, P06239” showed an abundance fitness of -0.146 ± 0.11. Work on “Scaffold attachment factor B2 D70S, Q14151” yielded an abundance fitness of -0.094 ± 0.15. In the case of “Scaffold attachment factor B2 N46P, Q14151”, the abundance fitness is reported as -0.514 ± 0.087. Work on “Scaffold attachment factor B2 D37G, Q14151” yielded an abundance fitness of -0.602 ± 0.076. Substance “Scaffold attachment factor B2 I36K, Q14151” has an abundance fitness of 0.04 ± 0.089. Substance “Scaffold attachment factor B2 K44G, Q14151” has an abundance fitness of -0.225 ± 0.072. “Scaffold attachment factor B2 L30Y, Q14151” gave an abundance fitness of -0.086 ± 0.12. Work on “Scaffold attachment factor B2 G68L, Q14151” yielded an abundance fitness of -0.365 ± 0.098. “Scaffold attachment factor B2 N52A, Q14151” showed an abundance fitness of -0.132 ± 0.088. “Scaffold attachment factor B2 L47W, Q14151” showed an abundance fitness of -0.696 ± 0.11. For “Scaffold attachment factor B2 V35W, Q14151”, the abundance fitness was -0.684 ± 0.083. Substance “Scaffold attachment factor B2 L47T, Q14151” has an abundance fitness of -0.409 ± 0.13. “Scaffold attachment factor B2 V35S, Q14151” gave an abundance fitness of -0.184 ± 0.089. In the case of “Scaffold attachment factor B2 Q69R, Q14151”, the abundance fitness is reported as -0.104 ± 0.074. In the case of “Scaffold attachment factor B2 L60P, Q14151”, the abundance fitness is reported as -0.102 ± 0.14. For “Scaffold attachment factor B2 K65N, Q14151”, the abundance fitness was -0.148 ± 0.37. Work on “Scaffold attachment factor B2 A63I, Q14151” yielded an abundance fitness of -0.546 ± 0.16. Work on “Tyrosine-protein kinase Lck I67N, P06239” yielded an abundance fitness of -0.206 ± 0.15. “Tyrosine-protein kinase Lck F115Y, P06239” gave an abundance fitness of 0.148 ± 0.12. In the case of “Scaffold attachment factor B2 K65M, Q14151”, the abundance fitness is reported as -0.181 ± 0.11. With “Scaffold attachment factor B2 D37R, Q14151” the abundance fitness was -1.05 ± 0.083. “Scaffold attachment factor B2 T27D, Q14151” showed an abundance fitness of 0.024 ± 0.18. “Scaffold attachment factor B2 I36D, Q14151” gave an abundance fitness of 0.206 ± 0.18. Substance “Scaffold attachment factor B2 D70C, Q14151” has an abundance fitness of -0.037 ± 0.12. Substance “Scaffold attachment factor B2 V64G, Q14151” has an abundance fitness of -0.294 ± 0.091. With “Scaffold attachment factor B2 L30A, Q14151” the abundance fitness was -0.28 ± 0.099. In the case of “Scaffold attachment factor B2 K44T, Q14151”, the abundance fitness is reported as -0.347 ± 0.1. In the case of “Scaffold attachment factor B2 D37Y, Q14151”, the abundance fitness is reported as -0.797 ± 0.16. “Scaffold attachment factor B2 L56W, Q14151” gave an abundance fitness of -0.631 ± 0.086. For “Scaffold attachment factor B2 D48A, Q14151”, the abundance fitness was -0.181 ± 0.085. Substance “Scaffold attachment factor B2 L33V, Q14151” has an abundance fitness of -0.204 ± 0.072. With “Scaffold attachment factor B2 A40G, Q14151” the abundance fitness was -0.233 ± 0.1. Work on “Scaffold attachment factor B2 Q69F, Q14151” yielded an abundance fitness of -0.656 ± 0.2. Work on “Scaffold attachment factor B2 A63M, Q14151” yielded an abundance fitness of -0.649 ± 0.13. “Scaffold attachment factor B2 K43P, Q14151” showed an abundance fitness of -0.486 ± 0.12. With “Scaffold attachment factor B2 Q69C, Q14151” the abundance fitness was -0.307 ± 0.2. Work on “Scaffold attachment factor B2 K53A, Q14151” yielded an abundance fitness of -0.516 ± 0.08. With “Scaffold attachment factor B2 L38V, Q14151” the abundance fitness was -0.863 ± 0.076. “Scaffold attachment factor B2 R34M, Q14151” gave an abundance fitness of -0.31 ± 0.1. “Scaffold attachment factor B2 K53R, Q14151” gave an abundance fitness of -0.047 ± 0.085. For “Scaffold attachment factor B2 G50T, Q14151”, the abundance fitness was -0.096 ± 0.17. In the case of “Scaffold attachment factor B2 A63G, Q14151”, the abundance fitness is reported as -0.324 ± 0.083. Substance “Scaffold attachment factor B2 A63P, Q14151” has an abundance fitness of -0.608 ± 0.13. Substance “Scaffold attachment factor B2 R29Y, Q14151” has an abundance fitness of -0.4 ± 0.12. “Scaffold attachment factor B2 G68K, Q14151” showed an abundance fitness of 0.232 ± 0.25. In the case of “Scaffold attachment factor B2 S31A, Q14151”, the abundance fitness is reported as -0.051 ± 0.1. “Scaffold attachment factor B2 V55D, Q14151” gave an abundance fitness of -0.007 ± 0.1. “Scaffold attachment factor B2 K62C, Q14151” gave an abundance fitness of -0.303 ± 0.12. In the case of “Scaffold attachment factor B2 K53Q, Q14151”, the abundance fitness is reported as -0.274 ± 0.12. With “Scaffold attachment factor B2 T49V, Q14151” the abundance fitness was -0.201 ± 0.07. For “Scaffold attachment factor B2 L33E, Q14151”, the abundance fitness was -0.072 ± 0.093. Substance “Scaffold attachment factor B2 V35C, Q14151” has an abundance fitness of -0.565 ± 0.12. With “Scaffold attachment factor B2 K65Q, Q14151” the abundance fitness was -0.309 ± 0.28. With “Scaffold attachment factor B2 D70G, Q14151” the abundance fitness was -0.036 ± 0.11. For “Scaffold attachment factor B2 K62E, Q14151”, the abundance fitness was -0.002 ± 0.1. Work on “Scaffold attachment factor B2 K65I, Q14151” yielded an abundance fitness of -0.241 ± 0.14. Substance “Scaffold attachment factor B2 L47M, Q14151” has an abundance fitness of -0.265 ± 0.13. For “Scaffold attachment factor B2 K43S, Q14151”, the abundance fitness was -0.057 ± 0.091. For “Scaffold attachment factor B2 K44D, Q14151”, the abundance fitness was -0.549 ± 0.19. For “Scaffold attachment factor B2 T27I, Q14151”, the abundance fitness was -0.136 ± 0.19. “Scaffold attachment factor B2 L56M, Q14151” showed an abundance fitness of -0.179 ± 0.099. In the case of “Scaffold attachment factor B2 E67S, Q14151”, the abundance fitness is reported as -0.226 ± 0.095. “Scaffold attachment factor B2 V64H, Q14151” gave an abundance fitness of -0.173 ± 0.1. With “Scaffold attachment factor B2 V64F, Q14151” the abundance fitness was -0.326 ± 0.12. In the case of “Scaffold attachment factor B2 D48I, Q14151”, the abundance fitness is reported as -0.555 ± 0.13. With “Tyrosine-protein kinase Lck R89Q, P06239” the abundance fitness was 0.125 ± 0.29. “Scaffold attachment factor B2 R34I, Q14151” showed an abundance fitness of -0.75 ± 0.15. In the case of “Scaffold attachment factor B2 R45N, Q14151”, the abundance fitness is reported as -0.99 ± 0.24. “Scaffold attachment factor B2 N52G, Q14151” gave an abundance fitness of -0.037 ± 0.087. In the case of “Scaffold attachment factor B2 D48M, Q14151”, the abundance fitness is reported as -0.545 ± 0.14. Work on “Scaffold attachment factor B2 S54V, Q14151” yielded an abundance fitness of -0.163 ± 0.078. For “Scaffold attachment factor B2 K43Y, Q14151”, the abundance fitness was -0.961 ± 0.25. With “Scaffold attachment factor B2 E58V, Q14151” the abundance fitness was -0.616 ± 0.076. Work on “Scaffold attachment factor B2 E58D, Q14151” yielded an abundance fitness of 0.001 ± 0.12. Work on “Scaffold attachment factor B2 K53M, Q14151” yielded an abundance fitness of -0.338 ± 0.11. In the case of “Scaffold attachment factor B2 A40E, Q14151”, the abundance fitness is reported as 0.022 ± 0.097. Substance “Scaffold attachment factor B2 L60V, Q14151” has an abundance fitness of -0.361 ± 0.09. “Scaffold attachment factor B2 T49G, Q14151” gave an abundance fitness of -0.509 ± 0.075. Work on “Scaffold attachment factor B2 I36C, Q14151” yielded an abundance fitness of 0.086 ± 0.099. With “Scaffold attachment factor B2 Q69S, Q14151” the abundance fitness was -0.077 ± 0.11. In the case of “Scaffold attachment factor B2 K53F, Q14151”, the abundance fitness is reported as -0.445 ± 0.13. “Scaffold attachment factor B2 D48Q, Q14151” gave an abundance fitness of -0.329 ± 0.11. In the case of “Scaffold attachment factor B2 R59H, Q14151”, the abundance fitness is reported as -0.474 ± 0.22. “Scaffold attachment factor B2 K53E, Q14151” gave an abundance fitness of -0.136 ± 0.091. “Scaffold attachment factor B2 N46H, Q14151” gave an abundance fitness of -0.432 ± 0.16. Substance “Scaffold attachment factor B2 K65F, Q14151” has an abundance fitness of -0.396 ± 0.22. In the case of “Scaffold attachment factor B2 V64M, Q14151”, the abundance fitness is reported as -0.013 ± 0.13. “Scaffold attachment factor B2 R29D, Q14151” showed an abundance fitness of 0.089 ± 0.093. “Scaffold attachment factor B2 L56A, Q14151” gave an abundance fitness of -0.374 ± 0.091. For “Scaffold attachment factor B2 V64R, Q14151”, the abundance fitness was -0.14 ± 0.09. For “Scaffold attachment factor B2 K44S, Q14151”, the abundance fitness was -0.183 ± 0.083. For “Scaffold attachment factor B2 E67Y, Q14151”, the abundance fitness was -0.889 ± 0.34. In the case of “Scaffold attachment factor B2 I36G, Q14151”, the abundance fitness is reported as 0.066 ± 0.068. Substance “Scaffold attachment factor B2 N52W, Q14151” has an abundance fitness of -1.06 ± 0.13. Work on “Scaffold attachment factor B2 R45K, Q14151” yielded an abundance fitness of -0.374 ± 0.12. For “Scaffold attachment factor B2 S54H, Q14151”, the abundance fitness was -0.191 ± 0.18. Work on “Scaffold attachment factor B2 K43N, Q14151” yielded an abundance fitness of -0.367 ± 0.2. For “Scaffold attachment factor B2 D37E, Q14151”, the abundance fitness was -0.012 ± 0.095. “Scaffold attachment factor B2 N52V, Q14151” showed an abundance fitness of -0.116 ± 0.089. Substance “Scaffold attachment factor B2 L47N, Q14151” has an abundance fitness of -0.877 ± 0.23. Work on “Scaffold attachment factor B2 D70I, Q14151” yielded an abundance fitness of -0.258 ± 0.17. For “Scaffold attachment factor B2 L30Q, Q14151”, the abundance fitness was -0.284 ± 0.14. Work on “Scaffold attachment factor B2 R29H, Q14151” yielded an abundance fitness of -0.099 ± 0.15. With “Scaffold attachment factor B2 E32V, Q14151” the abundance fitness was -0.393 ± 0.077.
